Data as given in patent US20140155581A1 (AstraZeneca / MedImmune, published 2014).

Target: T1, IGF1R (IGF1 receptor), antigen coated on the ELISA plate (UniProt P08069 31-932, limits assumed)
T1 construct: Construct not described; It may be the same histidine-tagged reagent as m8
Assay: ELISA, antigen coated at 2 µg/mL, antibody serially diluted, anti-kappa or anti-lambda HRP detection (FIG. 10)
Method: The absorbance at 450 nm was measured using a microtiter plate reader.

T1 sequence (P08069 31-932 limits assumed): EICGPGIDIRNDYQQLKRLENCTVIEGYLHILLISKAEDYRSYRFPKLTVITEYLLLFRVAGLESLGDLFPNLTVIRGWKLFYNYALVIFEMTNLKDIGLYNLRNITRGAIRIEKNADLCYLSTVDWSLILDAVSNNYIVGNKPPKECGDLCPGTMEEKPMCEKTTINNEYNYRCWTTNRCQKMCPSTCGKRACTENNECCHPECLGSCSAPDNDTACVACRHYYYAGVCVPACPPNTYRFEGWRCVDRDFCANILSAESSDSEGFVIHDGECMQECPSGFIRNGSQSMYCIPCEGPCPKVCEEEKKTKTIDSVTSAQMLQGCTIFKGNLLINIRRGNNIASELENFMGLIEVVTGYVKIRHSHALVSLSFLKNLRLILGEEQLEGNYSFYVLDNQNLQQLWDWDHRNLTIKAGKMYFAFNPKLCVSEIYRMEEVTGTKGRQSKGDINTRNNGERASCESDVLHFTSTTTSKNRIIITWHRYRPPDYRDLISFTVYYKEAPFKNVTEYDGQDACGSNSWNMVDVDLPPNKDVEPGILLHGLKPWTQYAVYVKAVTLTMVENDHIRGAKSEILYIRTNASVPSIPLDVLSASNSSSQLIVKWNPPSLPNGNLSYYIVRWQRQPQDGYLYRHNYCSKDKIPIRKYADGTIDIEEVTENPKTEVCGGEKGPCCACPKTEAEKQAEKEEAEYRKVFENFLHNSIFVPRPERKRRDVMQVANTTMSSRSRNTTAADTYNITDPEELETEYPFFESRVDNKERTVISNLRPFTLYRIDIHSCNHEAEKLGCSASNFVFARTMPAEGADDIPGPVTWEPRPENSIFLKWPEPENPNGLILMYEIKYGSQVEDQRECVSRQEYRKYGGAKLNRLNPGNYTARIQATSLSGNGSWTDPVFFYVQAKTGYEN

B1: anti-EGFR conventional antibody (monospecific bivalent, kappa light chain; parental arm of iMab-EI) (antibody, V domains shown)
VH: QVQLQESGPGLVKPSETLSLTCTVSGGSVSSGDYYWTWIRQSPGKGLEWIGHIYYSGNTNYNPSLKSRLTISIDTSKTQFSLKLSSVTAADTAIYYCVRDRVTGAFDIWGQGTMVTVSS
VL: DIQMTQSPSSLSASVGDRVTITCQASQDISNYLNWYQQKPGKAPKLLIYDASNLETGVPSRFSGSGSGTDFTFTISSLQPEDIATYFCQHFDHLPLAFGGGTKVEIK
notes: Conventional IgG with kappa light chain; constant regions not specified; also called anti-EGFR antibody; parental arm antibody
Question: Does B1 bind?
Answer: no binding
